The results in this text go back to the supplement of paper PMC7877785.

± gives the uncertainty stated by the source.

This data set in a line: self-splicing fitness, log relative to wild type (ln ratio); higher = more splicing; Tetrahymena group I intron in knt gene, E. coli kanamycin selection, DiMSum; sequences stand for … in CUCUCU…GGAGGGAAAAGUUAUCAGGCAUGCACCUGGUAGCUAGUCUUUAAACCAAUAGAUUGCAUCGGUUUAAAAGGCAAGACCGUCAAAUUGCGGGAAAGGGGUCAACAGCCGUUCAGUACCAAGUCUCAGGGGAAACUUUGAGAUGGCCUUGCAAAGGGUAUGGUAAUAAGCUGACGGACAUGGUCCUAACCACGCAGCCAAGUCCUAAGUCAACAGAUCUUCUGUUGAUAUGGAUGCAGUUCACAGACUAAAUGUCGGUCGGGGAAGAUGUAUUCUUCUCAUAAGAUAUAGUCGGACCUCUCCUUAAUGGGAGCUAGCGGAUGAAGUGAUGCAACACUGGAGCCGCUGGGAACUAAUUUGUAUGCGAAAGUAUAUUGAUUAGUUUUGGAGUACUCGUGGUCG
In a few lines: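 A randomised library covering all eight P1ex-region intron nucleotides was built with the intron in the knt kanamycin-resistance gene on pET-22b(+) and held in E. coli BL21(DE3). Cells were grown overnight at 37°C or 30°C on LB agar, with or without 25 μg/mL kanamycin, plus 100 μg/mL carbenicillin, 50 μM IPTG and 0.2% rhamnose, and pooled colonies were amplicon-sequenced on an Illumina HiSeq 2500. DiMSum fitness is the error-weighted combination of wild-type-normalised replicate fold changes, kanamycin versus none.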

GGAGAGCAAUAUUACGGUUC: the “self-splicing fitness (ln)” value (30 °C) was -1.36 ± 0.38. On to CACAAGCAAUAUUACGCGCU, for which the “self-splicing fitness (ln)” value runs as follows: (30 °C) -4.44 ± 0.27; (37 °C) -2.33 ± 0.18.

As for UUGUAGCAAUAUUACGACUG, the “self-splicing fitness (ln)” value is -0.0934 ± 0.12 (30 °C) and -0.0721 ± 0.14 (37 °C). Turning to UAGGAGCAAUAUUACGCUGC, the “self-splicing fitness (ln)” value (30 °C) was -3.05 ± 0.41 and the “self-splicing fitness (ln)” value (37 °C) is -1.03 ± 0.42. For AAAUAGCAAUAUUACGCACA, in that order: -0.634 ± 0.097 and -0.2 ± 0.14.

GAAUAGCAAUAUUACGUCCU: the “self-splicing fitness (ln)” value (30 °C) was -1.05 ± 0.11 and the “self-splicing fitness (ln)” value (37 °C) was 0.425 ± 0.15. Take AGCAAGCAAUAUUACGGGCA: the “self-splicing fitness (ln)” value runs as follows: (30 °C) -0.263 ± 0.071; (37 °C) 0.111 ± 0.084.

As for GAUGAGCAAUAUUACGAAGC, the “self-splicing fitness (ln)” value (30 °C) was -1.4 ± 0.41 and the “self-splicing fitness (ln)” value (37 °C) was determined as 0.175 ± 0.21. In the same order, the values of UCAUAGCAAUAUUACGCCAG are -1.74 ± 0.17 and -2.4 ± 0.19. As for CGACAGCAAUAUUACGCUAU, the “self-splicing fitness (ln)” value by setting is: (30 °C) -3.71 ± 0.23; (37 °C) -2.04 ± 0.14.

For the sequence GAAUAGCAAUAUUACGGCAG, the “self-splicing fitness (ln)” value runs as follows: (30 °C) -3.67 ± 0.39; (37 °C) -1.93 ± 0.25.

As to AGGAAGCAAUAUUACGGAAC, the “self-splicing fitness (ln)” value is, setting by setting: (30 °C) -3.47 ± 0.26; (37 °C) -2.96 ± 0.31. For CCCGAGCAAUAUUACGGGUC, in that order: -4.34 ± 0.28 and -2.12 ± 0.23.

ACUGAGCAAUAUUACGGGUU: the “self-splicing fitness (ln)” value reads like this: (30 °C) -2.09 ± 0.1; (37 °C) -3.88 ± 0.28.

As to UUGUAGCAAUAUUACGCGAC, the “self-splicing fitness (ln)” value (37 °C) is -0.429 ± 0.37. Regarding UAAGAGCAAUAUUACGAUUC, the “self-splicing fitness (ln)” value (37 °C) was -0.537 ± 0.43. UGCGAGCAAUAUUACGGCAA: the “self-splicing fitness (ln)” value was -2.3 ± 0.4 (30 °C) and -0.0535 ± 0.27 (37 °C). As to CGCUAGCAAUAUUACGUAAC, the “self-splicing fitness (ln)” value was -4.07 ± 0.31 (30 °C) and -2.87 ± 0.38 (37 °C).

Take CCAUAGCAAUAUUACGGGCU: the “self-splicing fitness (ln)” value by setting is: (30 °C) -3.65 ± 0.27; (37 °C) -2.19 ± 0.19.

As to CGAUAGCAAUAUUACGCGUA, the “self-splicing fitness (ln)” value reads like this: (30 °C) -2.42 ± 0.41; (37 °C) -2.14 ± 0.24. In the same order, the values of GGUAAGCAAUAUUACGCGGG are -3.28 ± 0.17 and -2.02 ± 0.2. In the same order, the values of UGUGAGCAAUAUUACGUUUU are -3.15 ± 0.27 and -2.98 ± 0.37. Turning to GCGUAGCAAUAUUACGGCGU, the “self-splicing fitness (ln)” value was -4.1 ± 0.37 (30 °C) and -2.07 ± 0.28 (37 °C). For the sequence CUGAAGCAAUAUUACGGGUC, the “self-splicing fitness (ln)” value (30 °C) is -3.92 ± 0.4. For AACAAGCAAUAUUACGCAUA, the “self-splicing fitness (ln)” value by setting is: (30 °C) -1.8 ± 0.12; (37 °C) -1.04 ± 0.13. On to CGACAGCAAUAUUACGCUUC, for which the “self-splicing fitness (ln)” value (37 °C) was -3.09 ± 0.43. In the case of CCAGAGCAAUAUUACGGAUC, the “self-splicing fitness (ln)” value (30 °C) is -1.77 ± 0.32. As to GCUCAGCAAUAUUACGACAG, the “self-splicing fitness (ln)” value is, setting by setting: (30 °C) -3.53 ± 0.21; (37 °C) -2.28 ± 0.22. For AUUCAGCAAUAUUACGUGAG, in that order: 0.00589 ± 0.07 and 0.325 ± 0.12. For AAGCAGCAAUAUUACGUUGA, in that order: -2.89 ± 0.13 and -1.51 ± 0.11. For GCUAAGCAAUAUUACGAGCC, in that order: -3.9 ± 0.2 and -2.33 ± 0.33.

For the sequence GGAAAGCAAUAUUACGCUGA, the “self-splicing fitness (ln)” value (30 °C) is -2.94 ± 0.22 and the “self-splicing fitness (ln)” value (37 °C) is -1.9 ± 0.16. Take CGAAAGCAAUAUUACGGACC: the “self-splicing fitness (ln)” value was -0.938 ± 0.11 (30 °C) and 0.398 ± 0.13 (37 °C). In the same order, the values of ACCUAGCAAUAUUACGGAGU are -3.61 ± 0.13 and -2.39 ± 0.12.

Consider ACCCAGCAAUAUUACGCCGA, for which the “self-splicing fitness (ln)” value reads like this: (30 °C) -1.26 ± 0.075; (37 °C) -1.14 ± 0.082.

Turning to UAGGAGCAAUAUUACGCACG, the “self-splicing fitness (ln)” value reads like this: (30 °C) -2.12 ± 0.32; (37 °C) -0.819 ± 0.25. AAAAAGCAAUAUUACGUCCC: the “self-splicing fitness (ln)” value (30 °C) was -0.842 ± 0.15 and the “self-splicing fitness (ln)” value (37 °C) was determined as 0.362 ± 0.23. With UGUAAGCAAUAUUACGCCAG, the “self-splicing fitness (ln)” value runs as follows: (30 °C) -1.82 ± 0.34; (37 °C) -1.07 ± 0.33. As for GACGAGCAAUAUUACGCGUC, the “self-splicing fitness (ln)” value (30 °C) is -2.57 ± 0.5.

With CGCCAGCAAUAUUACGCACC, the “self-splicing fitness (ln)” value reads like this: (30 °C) -2.37 ± 0.17; (37 °C) -2.33 ± 0.35. In the same order, the values of CUUCAGCAAUAUUACGAAGA are -3.72 ± 0.4 and -2.33 ± 0.21. In the case of AAGUAGCAAUAUUACGACCC, the “self-splicing fitness (ln)” value was 0.421 ± 0.3 (30 °C) and 0.212 ± 0.29 (37 °C).

In the case of UACAAGCAAUAUUACGAUAC, the “self-splicing fitness (ln)” value is -3.7 ± 0.44 (30 °C) and -2.34 ± 0.25 (37 °C). For GCCUAGCAAUAUUACGAAUC, in that order: -1.36 ± 0.066 and 0.0359 ± 0.086. In the same order, the values of GCGUAGCAAUAUUACGCAAC are -3.87 ± 0.18 and -2.33 ± 0.17. In the same order, the values of GUGUAGCAAUAUUACGUCAU are -3.23 ± 0.2 and -2.63 ± 0.17. As to CCUUAGCAAUAUUACGAGUA, the “self-splicing fitness (ln)” value is, setting by setting: (30 °C) -2.81 ± 0.29; (37 °C) -2.42 ± 0.26. In the same order, the values of UACUAGCAAUAUUACGCUGA are -2.48 ± 0.16 and -1.37 ± 0.15. CUUUAGCAAUAUUACGGCCA: the “self-splicing fitness (ln)” value (37 °C) was -0.666 ± 0.5. For ACGUAGCAAUAUUACGUCGU, the “self-splicing fitness (ln)” value by setting is: (30 °C) -3.52 ± 0.15; (37 °C) -2.59 ± 0.15. In the same order, the values of GUAGAGCAAUAUUACGUGAC are -2.42 ± 0.16 and -1.31 ± 0.19. With UCAUAGCAAUAUUACGACGG, the “self-splicing fitness (ln)” value by setting is: (30 °C) -0.375 ± 0.11; (37 °C) -0.184 ± 0.13. In the same order, the values of AGUAAGCAAUAUUACGUCGG are -3.61 ± 0.35 and -1.8 ± 0.29.

Turning to UGCGAGCAAUAUUACGCACC, the “self-splicing fitness (ln)” value is -3.32 ± 0.31 (30 °C) and -2.72 ± 0.42 (37 °C). In the same order, the values of GCGAAGCAAUAUUACGCGAA are -2.2 ± 0.13 and -1.68 ± 0.14.

CGGAAGCAAUAUUACGCUAG: the “self-splicing fitness (ln)” value reads like this: (30 °C) -1.05 ± 0.091; (37 °C) -1.6 ± 0.19. In the same order, the values of GAUUAGCAAUAUUACGCCUG are -1.56 ± 0.2 and -0.102 ± 0.19.

GGCAAGCAAUAUUACGAUUA: the “self-splicing fitness (ln)” value by setting is: (30 °C) -0.726 ± 0.1; (37 °C) -0.234 ± 0.093. For AACAAGCAAUAUUACGCGCG, in that order: -0.623 ± 0.093 and 0.651 ± 0.11. In the same order, the values of UUUAAGCAAUAUUACGUUAG are -1.75 ± 0.13 and -0.995 ± 0.14. For UUGCAGCAAUAUUACGAAAA, in that order: -1.02 ± 0.12 and -0.432 ± 0.12. Turning to UUUCAGCAAUAUUACGCCCU, the “self-splicing fitness (ln)” value runs as follows: (30 °C) -0.619 ± 0.22; (37 °C) -0.611 ± 0.29. In the case of CCCUAGCAAUAUUACGACAC, the “self-splicing fitness (ln)” value (37 °C) is -2.32 ± 0.28.
